Measurements: patent publication US9926355

Target: binary complex of FGFR1c ligand-binding domain with αKlotho ectodomain (murine; human) (UniProt O35082)
Assay: SPR; immobilized FGF23, αKlotho-FGFR1c complex compared with FGFR1c ligand-binding domain alone (FIGS. 10D and 10E)

binary complex of FGFR1c ligand-binding domain with αKlotho ectodomain (murine; human), sequence (O35082 35-982, form in doubt, chain 1 of 2): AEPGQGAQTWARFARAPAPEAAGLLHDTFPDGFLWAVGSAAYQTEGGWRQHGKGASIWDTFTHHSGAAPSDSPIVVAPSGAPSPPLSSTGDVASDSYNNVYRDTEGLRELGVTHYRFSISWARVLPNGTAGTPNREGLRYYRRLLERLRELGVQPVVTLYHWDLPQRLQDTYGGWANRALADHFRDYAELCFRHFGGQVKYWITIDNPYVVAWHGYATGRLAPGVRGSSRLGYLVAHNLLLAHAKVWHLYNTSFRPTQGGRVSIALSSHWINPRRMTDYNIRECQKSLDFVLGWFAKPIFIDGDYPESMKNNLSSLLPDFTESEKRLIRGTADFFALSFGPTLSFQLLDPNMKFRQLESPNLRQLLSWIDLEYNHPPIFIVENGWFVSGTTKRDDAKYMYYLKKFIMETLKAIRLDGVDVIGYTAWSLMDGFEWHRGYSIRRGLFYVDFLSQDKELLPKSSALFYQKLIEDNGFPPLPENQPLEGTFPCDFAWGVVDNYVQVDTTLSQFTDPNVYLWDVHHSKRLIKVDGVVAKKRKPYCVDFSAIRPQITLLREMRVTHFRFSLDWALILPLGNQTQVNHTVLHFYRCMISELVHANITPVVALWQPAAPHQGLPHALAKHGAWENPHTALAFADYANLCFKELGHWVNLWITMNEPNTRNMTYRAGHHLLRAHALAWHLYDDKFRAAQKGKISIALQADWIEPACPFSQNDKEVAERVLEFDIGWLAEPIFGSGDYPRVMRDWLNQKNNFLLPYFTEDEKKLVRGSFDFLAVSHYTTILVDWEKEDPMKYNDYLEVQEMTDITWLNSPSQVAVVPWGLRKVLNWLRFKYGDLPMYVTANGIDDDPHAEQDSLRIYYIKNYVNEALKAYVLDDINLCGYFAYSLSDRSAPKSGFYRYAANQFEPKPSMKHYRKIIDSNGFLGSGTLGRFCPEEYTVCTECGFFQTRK
binary complex of FGFR1c ligand-binding domain with αKlotho ectodomain (murine; human), sequence (P11362 142-365, form in doubt, chain 2 of 2, further chain): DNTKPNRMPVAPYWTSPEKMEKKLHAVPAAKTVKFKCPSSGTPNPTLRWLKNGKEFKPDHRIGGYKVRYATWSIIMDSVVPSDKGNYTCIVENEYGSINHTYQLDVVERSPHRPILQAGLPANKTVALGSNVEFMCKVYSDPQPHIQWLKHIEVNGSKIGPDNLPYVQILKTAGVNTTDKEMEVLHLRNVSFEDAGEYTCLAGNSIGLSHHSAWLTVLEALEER

fold enhancement of affinity against FGFR1c alone: > 20 fold
B1: N-terminally hexahistidine-tagged, mature form of human FGF23 (Y25 to I251), R176Q/R179Q (ligand, not shown: small tags and cut ends)
chain: YPNASPLLGSSWGGLIHLYTATARNSYHLQIHKNGHVDGAPHQTIYSALMIRSEDAGFVVITGVMSRRYLCMDFRGNIFGSHYFDPENCRFQHQTLENGYDVYHSPQYHFLVSLGRAKRAFLPGMNPPPYSQFLSRRNEIPLIHFNTPIPRQHTQSAEDDSERDPLNVLKPRARMTPAPASCSQELPSAEDNSPMASDPLGVVRGGRVNTHAGGTGPEGCRPFAKFI
